Publication PMC5787828, “NAC transcription factor JUNGBRUNNEN1 enhances drought tolerance in tomato”

T1: AtJUB1-GST (Arabidopsis thaliana, UniProt Q9SK55 1-275)
T1 sequence: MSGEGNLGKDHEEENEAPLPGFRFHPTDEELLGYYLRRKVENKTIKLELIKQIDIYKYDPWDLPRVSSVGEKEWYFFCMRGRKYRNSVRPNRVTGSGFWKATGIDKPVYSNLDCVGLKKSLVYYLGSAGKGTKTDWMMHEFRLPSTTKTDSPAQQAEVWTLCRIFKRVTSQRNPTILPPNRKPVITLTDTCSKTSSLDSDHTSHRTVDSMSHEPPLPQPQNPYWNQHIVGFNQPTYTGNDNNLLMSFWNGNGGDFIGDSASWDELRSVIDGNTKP

B1: SlDELLA promoter probe (dsDNA)
DNA 1: ATTTTTCACACTTGACCACCACCACTTTTACTTGCCCTACTAAATCTAAA
DNA 2: TTTAGATTTAGTAGGGCAAGTAAAAGTGGTGGTGGTCAAGTGTGAAAAAT
B2: SlDREB2 promoter probe (dsDNA)
DNA 1: TATATGGCTGTGCTTGATCGAACTTCAAATATGATGTTACCTATGGATTA
DNA 2: TAATCCATAGGTAACATCATATTTGAAGTTCGATCAAGCACAGCCATATA
B3: SlDREB1 promoter probe (dsDNA)
DNA 1: TTATTTAGTCGAGTCGTGGCTGTTGGGATGCCGCGGAATTCAGCACGTG
DNA 2: CACGTGCTGAATTCCGCGGCATCCCAACAGCCACGACTCGACTAAATAA

These binders were tested against T1, AtJUB1-GST (assay: EMSA; abolished by 100x unlabelled competitor; Odyssey Infrared EMSA kit (LI-COR); buffer, salt, pH and temperature not stated). Conditions: protein: recombinant; tags: GST (pDEST24 fusion); chain copies: 2; label: 5'-DY682; blunt.

Binding result, binds:
B1
B2
B3
